Source: paper PMC12618267, “GAGA zinc finger transcription factor searches chromatin by 1D–3D facilitated diffusion”

How the values were obtained:
[1] = test system: T1, HA-GAF-FL (Drosophila melanogaster), Q08605-2; experiment: EMSA; settings: ~15 nM protein, 3 nM NCP; 12.5 mM HEPES-KOH pH 7.6, 0.05 mM EDTA, 6.25 mM MgCl2, 5% glycerol, 50 mM NaCl, 50 ug/ml BSA, 0.05% NP-40; EMSA at room temperature; smFRET adds dextrose …
T1 sequence: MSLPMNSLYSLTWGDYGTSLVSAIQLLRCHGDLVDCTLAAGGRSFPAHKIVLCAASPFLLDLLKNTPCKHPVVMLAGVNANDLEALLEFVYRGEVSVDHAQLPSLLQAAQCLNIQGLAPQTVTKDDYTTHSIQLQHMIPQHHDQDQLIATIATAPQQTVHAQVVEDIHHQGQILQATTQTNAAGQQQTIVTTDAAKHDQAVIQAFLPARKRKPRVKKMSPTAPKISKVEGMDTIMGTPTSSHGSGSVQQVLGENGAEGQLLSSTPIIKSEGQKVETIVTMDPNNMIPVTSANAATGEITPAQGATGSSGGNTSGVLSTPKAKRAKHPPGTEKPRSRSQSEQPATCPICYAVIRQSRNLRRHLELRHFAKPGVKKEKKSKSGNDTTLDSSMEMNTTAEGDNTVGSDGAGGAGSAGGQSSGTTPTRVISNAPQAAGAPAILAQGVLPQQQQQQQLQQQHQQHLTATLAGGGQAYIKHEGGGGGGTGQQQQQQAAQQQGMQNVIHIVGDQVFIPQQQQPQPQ

[2] = test system: T2, Cy3-GAF-DBD / GAF-DBD (Drosophila melanogaster), Q08605-2; experiment: EMSA; settings: 3 nM DNA; 12.5 mM HEPES-KOH pH 7.6, 0.05 mM EDTA, 6.25 mM MgCl2, 5% glycerol, 50 mM NaCl, 50 ug/ml BSA, 0.05% NP-40; EMSA at room temperature; smFRET adds dextrose …
T2 sequence: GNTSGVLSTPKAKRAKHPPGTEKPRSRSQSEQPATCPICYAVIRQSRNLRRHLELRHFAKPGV

[3] = test system: T2, Cy3-GAF-DBD / GAF-DBD (Drosophila melanogaster), Q08605-2; experiment: smFRET; settings: from koff/kon; dwell 3.1 s; 6.25 mM Mg2+; 12.5 mM HEPES-KOH pH 7.6, 0.05 mM EDTA, 6.25 mM MgCl2, 5% glycerol, 50 mM NaCl, 50 ug/ml BSA, 0.05% NP-40; EMSA at room temperature; smFRET adds dextrose …
[4] = target: SNAP-tagged full-length GAGA factor (MBP–SNAP–GAF–6×His) (Drosophila melanogaster); experiment: mass photometry; Refeyn TwoMP; proteins free in solution; optical tweezers imaging buffer without NP-40; 10-min incubation before measuring; at concentrations similar to those of the optical tweezers experiments (80 nM GAF-FL, 25 nM GAF-ΔPOZ)
[5] = target: T3, HA-GAF-FL (Drosophila melanogaster, UniProt Q08605-2 1-519); experiment: EMSA; 3 nM DNA; 12.5 mM HEPES-KOH pH 7.6, 0.05 mM EDTA, 6.25 mM MgCl2, 5% glycerol, 50 mM NaCl, 50 ug/ml BSA, 0.05% NP-40; EMSA at room temperature; smFRET adds dextrose, Trolox, glucose oxidase, catalase; settings: protein: recombinant; tags: N-terminal HA; chain copies: 6; label: Cy5 at end
T3 sequence: T1 sequence

GTGTCATTTGTTTGGCAGAAAGAAAACTCGAGAAATTTCTCTGGCCGTTATTCTCTATTCGTTTTGTGACTCTCCCTCTCTGTACTATTGCTCTCTCACTCTGTCGCACAGTAAACGGCACACTGTTCTCGTTGCTTCGAGAGAGCGCGCCTCGAA (double strand) [hsp70 NCP (3-N-6 nucleosome)]
binding signal (fold less bound than free DNA) [1]: 2

GTGTCATTTGTTTGGCAGAAAGAAAACTCGAGAAATTTCTCTGGCCGTTATTCTCTATTCGTTTTGTGACTCTCCCTCTCTGTACTATTGCTCTCTCACTCTGTCGCACAGTAAACGGCACACTGTTCTCGTTGCTTCGAGAGAGCGCGCCTCGAA (double strand) [hsp70 NCP DNA (free, 3-N-6)]
K half [2]: 12 nM

GTTTTGTGAGTACGCGCTGTTGTACTATTGTTAACCCACAAGGTCGCACAGTAAACGGCACACTGTACGTGTTGCTTCGAGAGAGCGCGC (double strand) [Cy5-cognate DNA 90 bp]
Kd [3]: 11.5 nM

SNAP-tagged full-length GAGA factor (MBP–SNAP–GAF–6×His) (natural protein)
stoichiometry N [4]: 8

B1: hsp70 NCP DNA (free, 3-N-6) (dsDNA)
DNA 1: GTGTCATTTGTTTGGCAGAAAGAAAACTCGAGAAATTTCTCTGGCCGTTATTCTCTATTCGTTTTGTGACTCTCCCTCTCTGTACTATTGCTCTCTCACTCTGTCGCACAGTAAACGGCACACTGTTCTCGTTGCTTCGAGAGAGCGCGCCTCGAA
DNA 2: TTCGAGGCGCGCTCTCTCGAAGCAACGAGAACAGTGTGCCGTTTACTGTGCGACAGAGTGAGAGAGCAATAGTACAGAGAGGGAGAGTCACAAAACGAATAGAGAATAACGGCCAGAGAAATTTCTCGAGTTTTCTTTCTGCCAAACAAATGACAC
binding result [5]: binds
